Where two headings read alike, the source gives them in different places.
T1: full-length human NPC1 (Niemann-Pick C1) (human, UniProt O15118 23-1278)
T1 sequence: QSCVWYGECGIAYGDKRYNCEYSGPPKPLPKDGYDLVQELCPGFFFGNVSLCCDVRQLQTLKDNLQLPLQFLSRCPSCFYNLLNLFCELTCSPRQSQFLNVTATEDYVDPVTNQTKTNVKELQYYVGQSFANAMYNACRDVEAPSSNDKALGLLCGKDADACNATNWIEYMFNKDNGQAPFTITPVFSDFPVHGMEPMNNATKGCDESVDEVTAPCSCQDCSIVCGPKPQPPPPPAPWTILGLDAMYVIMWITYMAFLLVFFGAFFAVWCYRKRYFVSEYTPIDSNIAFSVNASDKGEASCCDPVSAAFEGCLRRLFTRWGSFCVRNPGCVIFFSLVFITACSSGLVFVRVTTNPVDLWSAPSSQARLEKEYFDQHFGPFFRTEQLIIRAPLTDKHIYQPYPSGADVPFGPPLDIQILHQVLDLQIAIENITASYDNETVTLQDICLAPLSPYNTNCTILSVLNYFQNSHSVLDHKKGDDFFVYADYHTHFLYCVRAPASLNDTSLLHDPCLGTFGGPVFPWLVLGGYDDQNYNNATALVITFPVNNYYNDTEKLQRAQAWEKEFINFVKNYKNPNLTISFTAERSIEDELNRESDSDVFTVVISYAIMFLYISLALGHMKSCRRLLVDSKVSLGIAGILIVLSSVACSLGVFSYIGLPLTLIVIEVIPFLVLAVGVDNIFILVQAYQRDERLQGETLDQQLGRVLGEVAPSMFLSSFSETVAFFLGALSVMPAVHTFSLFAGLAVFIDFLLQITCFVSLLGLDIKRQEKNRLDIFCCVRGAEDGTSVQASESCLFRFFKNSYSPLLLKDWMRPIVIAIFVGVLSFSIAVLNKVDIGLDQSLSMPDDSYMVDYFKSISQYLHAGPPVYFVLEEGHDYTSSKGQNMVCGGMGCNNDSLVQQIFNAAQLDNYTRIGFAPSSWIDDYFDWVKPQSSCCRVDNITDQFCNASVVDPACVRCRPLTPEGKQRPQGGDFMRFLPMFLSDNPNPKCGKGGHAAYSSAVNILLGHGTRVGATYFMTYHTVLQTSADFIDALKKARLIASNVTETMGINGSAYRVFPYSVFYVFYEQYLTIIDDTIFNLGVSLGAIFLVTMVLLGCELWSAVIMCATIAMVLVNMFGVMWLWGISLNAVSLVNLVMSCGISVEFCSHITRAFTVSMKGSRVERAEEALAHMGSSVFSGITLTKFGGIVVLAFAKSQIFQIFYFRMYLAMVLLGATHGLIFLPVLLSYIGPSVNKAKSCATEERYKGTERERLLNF

B1: human NPC2 (natural protein)
chain: EPVQFKDCGSVDGVIKEVNVSPCPTQPCQLSKGQSYSVNVTFTSNIQSKSSKAVVHGILMGVPVPFPIPEPDGCKSGINCPIQKDKTYSYLNKLPVKSEYPSIKLVVEWQLQDDKNQSLFCWEIPVQIVSHL

How the values were obtained:
Assay in all cases: ITC
[1] = target: T1, full-length human NPC1 (Niemann-Pick C1)
[2] = target: T1, full-length human NPC1 (Niemann-Pick C1); remark: listed apart in the source
human NPC2 = target: B1

Row | Binder | Kd [1] [µM] | Kd [2] [µM] | Kd (human NPC2) [µM]
1 | B1 | 15.8 ± 1.2 | 217 ± 35.3 | –
2 | human NPC1 ΔLinker (full length with internal deletion of the Pro-rich segment 249…257) (natural protein) QSCVWYGECGIAYGDKRYNCEYSGPPKPLPKDGYDLVQELCPGFFFGNVSLCCDVRQLQTLKDNLQLPLQFLSRCPSCFYNLLNLFCELTCSPRQSQFLNVTATEDYVDPVTNQTKTNVKELQYYVGQSFANAMYNACRDVEAPSSNDKALGLLCGKDADACNATNWIEYMFNKDNGQAPFTITPVFSDFPVHGMEPMNNATKGCDESVDEVTAPCSCQDCSIVCGAPWTILGLDAMYVIMWITYMAFLLVFFGAFFAVWCYRKRYFVSEYTPIDSNIAFSVNASDKGEASCCDPVSAAFEGCLRRLFTRWGSFCVRNPGCVIFFSLVFITACSSGLVFVRVTTNPVDLWSAPSSQARLEKEYFDQHFGPFFRTEQLIIRAPLTDKHIYQPYPSGADVPFGPPLDIQILHQVLDLQIAIENITASYDNETVTLQDICLAPLSPYNTNCTILSVLNYFQNSHSVLDHKKGDDFFVYADYHTHFLYCVRAPASLNDTSLLHDPCLGTFGGPVFPWLVLGGYDDQNYNNATALVITFPVNNYYNDTEKLQRAQAWEKEFINFVKNYKNPNLTISFTAERSIEDELNRESDSDVFTVVISYAIMFLYISLALGHMKSCRRLLVDSKVSLGIAGILIVLSSVACSLGVFSYIGLPLTLIVIEVIPFLVLAVGVDNIFILVQAYQRDERLQGETLDQQLGRVLGEVAPSMFLSSFSETVAFFLGALSVMPAVHTFSLFAGLAVFIDFLLQITCFVSLLGLDIKRQEKNRLDIFCCVRGAEDGTSVQASESCLFRFFKNSYSPLLLKDWMRPIVIAIFVGVLSFSIAVLNKVDIGLDQSLSMPDDSYMVDYFKSISQYLHAGPPVYFVLEEGHDYTSSKGQNMVCGGMGCNNDSLVQQIFNAAQLDNYTRIGFAPSSWIDDYFDWVKPQSSCCRVDNITDQFCNASVVDPACVRCRPLTPEGKQRPQGGDFMRFLPMFLSDNPNPKCGKGGHAAYSSAVNILLGHGTRVGATYFMTYHTVLQTSADFIDALKKARLIASNVTETMGINGSAYRVFPYSVFYVFYEQYLTIIDDTIFNLGVSLGAIFLVTMVLLGCELWSAVIMCATIAMVLVNMFGVMWLWGISLNAVSLVNLVMSCGISVEFCSHITRAFTVSMKGSRVERAEEALAHMGSSVFSGITLTKFGGIVVLAFAKSQIFQIFYFRMYLAMVLLGATHGLIFLPVLLSYIGPSVNKAKSCATEERYKGTERERLLNF | – | – | 266 ± 25.5

— publication PMC7111323 (Cell, 2016)
